Results reported in the RNAGym collection of RNA variant scans (doi:10.7554/elife.80360).

B1: CPEB3 Ribozyme (parent)
chain: GGGGGCCACAGCAGAAGCGUUCACGUCGCGGCCCCUGUCAGAUUCUGGUGAAUCUGCGAAUUCUGCUGU

Variants of: B1
Experiment: self-cleavage, relative activity (ratio to wild type); higher = more cleavage; co-transcriptional

| Variant | self-cleavage |
| --- | --- |
| GGGGGCCACAGCAGAAGCGUUCACGUCGCGGCCCCUGGCAGAUUCUGAUGAAUCUGCGAAUUCUGCUGU | 0.21 |
| GGGGGCCACAGCAGAAGCGUUCACGUCGCGGCCCCUGGCAGAUUCUGGUGAAUGUGCGAAUUCUGCUGU | 0.302 |
| GGGGGCCACAGCAGAAGCGUUCACGUCGCGGCCCCUGGCAGAUUCUGGUGAAUUUGCGAAUUCUGCUGU | 0.29 |
| GGGGGCCACAGCAGAAGCGUUCACGUCGCGGCCCCUGCCAGAUUCUGGUGAAUCUGCGAAUUCUGCUGG | 1.05 |
| GGGGGCCACAGCAGAAGCGUUCACGUCGCGGCCCCUGGCAGAUUCUGGUGAAUCUGCGACUUCUGCUGU | 0.137 |
| GGGGGCCACAGCAGAAGCGUUCACGUCGCGGCCCCUGGCAGAUUCUGGUAAAUCUGCGAAUUCUGCUGU | 0.204 |
| GGGGGCCACAGCAGAAGCGUUCACGUCGCGGCCCCUGCCAUAUUCUGGUGAAUCUGCGAAUUCUGCUGU | 0.705 |
| GGGGGCCACAGCAGAAGCGUUCACGUCGCGGCCCCUGGCAGAUUCUGGUGAUUCUGCGAAUUCUGCUGU | 0.156 |
| GGGGGCCACAGCAGAAGCGUUCACGUCGCGGCCCCUGGCAGAUUCUGGUGGAUCUGCGAAUUCUGCUGU | 0.258 |
| GGGGGCCACAGCAGAAGCGUUCACGUCGCGGCCCCUGGCAGAUUCUGGUGUAUCUGCGAAUUCUGCUGU | 0.295 |
| GGGGGCCACAGCAGAAGCGUUCACGUCGCGGCCCCUGCCAGAUUCUGGUGAAUCUGCGAUUUCUGCUGU | 0.331 |
| GGGGGCCACAGCAGAAGCGUUCACGUCGCGGCCCCUGGCAGAUUGUGGUGAAUCUGCGAAUUCUGCUGU | 0.27 |
| GGGGGCCACAGCAGAAGCGUUCACGUCGCGGCCCCUGGCAGAUUCUGGUGAAUCUGGGAAUUCUGCUGU | 0.121 |
| GGGGGCCACAGCAGAAGCGUUCACGUCGCGGCCCCUGCCAGAUUCUGCUGAAUCUGCGAAUUCUGCUGU | 0.986 |
| GGGGGCCACAGCAGAAGCGUUCACGUCGCGGCCCCUGCCAGAUUCUGUUGAAUCUGCGAAUUCUGCUGU | 1 |
| GGGGGCCACAGCAGAAGCGUUCACGUCGCGGCCCCUGCCAGAUUCUGGUGAAUCUGCGAAUUCUGCGGU | 0.925 |
| GGGGGCCACAGCAGAAGCGUUCACGUCGCGGCCCCUGACAGAUUCUGGUGAAUCUGGGAAUUCUGCUGU | 0.297 |
| GGGGGCCACAGCAGAAGCGUUCACGUCGCGGCCCCUGACAGAUCCUGGUGAAUCUGCGAAUUCUGCUGU | 0.802 |
| GGGGGCCACAGCAGAAGCGUUCACGUCGCGGCCCCUGACAGAUUCAGGUGAAUCUGCGAAUUCUGCUGU | 0.941 |
| GGGGGCCACAGCAGAAGCGUUCACGUCGCGGCCCCUGACAGAUUCCGGUGAAUCUGCGAAUUCUGCUGU | 0.954 |

| Variant | self-cleavage |
| --- | --- |
| GGGGGCCACAGCAGAAGCGUUCACGUCGCGGCCCCUGCCAGAUUCUGGUGAACCUGCGAAUUCUGCUGU | 0.763 |
| GGGGGCCACAGCAGAAGCGUUCACGUCGCGGCCCCUGCCAGAUUCUGGUGAAGCUGCGAAUUCUGCUGU | 0.682 |
| GGGGGCCACAGCAGAAGCGUUCACGUCGCGGCCCCUGCCAGAUUCUGGUGAAACUGCGAAUUCUGCUGU | 0.883 |
| GGGGGCCACAGCAGAAGCGUUCACGUCGCGGCCCCUGCCAGAUUCGGGUGAAUCUGCGAAUUCUGCUGU | 0.921 |
| GGGGGCCACAGCAGAAGCGUUCACGUCGCGGCCCCUGACAGAUUCUGGUGAAUCUGCCAAUUCUGCUGU | 0.921 |
| GGGGGCCACAGCAGAAGCGUUCACGUCGCGGCCCCUGGCAGAUUCUGGUGAAUCUGCGAAUUGUGCUGU | 0.224 |
| GGGGGCCACAGCAGAAGCGUUCACGUCGCGGCCCCUGGCAGAUUCUGGUGAAUCUGCGAAUUUUGCUGU | 0.229 |
| GGGGGCCACAGCAGAAGCGUUCACGUCGCGGCCCCUGCCAGAUUCUGGUGAAUCUGCGAAUUCAGCUGU | 0.772 |
| GGGGGCCACAGCAGAAGCGUUCACGUCGCGGCCCCUGGCAGAUUCUGGUGAAUCUGCGUAUUCUGCUGU | 0.228 |
| GGGGGCCACAGCAGAAGCGUUCACGUCGCGGCCCCUGCCAGAUGCUGGUGAAUCUGCGAAUUCUGCUGU | 0.851 |
| GGGGGCCACAGCAGAAGCGUUCACGUCGCGGCCCCUGCCAGAGUCUGGUGAAUCUGCGAAUUCUGCUGU | 0.866 |
| GGGGGCCACAGCAGAAGCGUUCACGUCGCGGCCCCUGACAGAUUCUGGUGAAACUGCGAAUUCUGCUGU | 0.864 |
| GGGGGCCACAGCAGAAGCGUUCACGUCGCGGCCCCUGACAGAUUCUGGUGAAGCUGCGAAUUCUGCUGU | 0.706 |
| GGGGGCCACAGCAGAAGCGUUCACGUCGCGGCCCCUGCCAGAUUCUGGUGUAUCUGCGAAUUCUGCUGU | 0.935 |
| GGGGGCCACAGCAGAAGCGUUCACGUCGCGGCCCCUGACAGAUUCUGGUGAAUCUGCGAAUUCUACUGU | 0.733 |
| GGGGGCCACAGCAGAAGCGUUCACGUCGCGGCCCCUGCCAGAUUCUGGUGAGUCUGCGAAUUCUGCUGU | 0.909 |
| GGGGGCCACAGCAGAAGCGUUCACGUCGCGGCCCCUGCCAGAUUCUGGUGAUUCUGCGAAUUCUGCUGU | 0.895 |
| GGGGGCCACAGCAGAAGCGUUCACGUCGCGGCCCCUGCCAGAUUCUGGUGAAUCUGCGCAUUCUGCUGU | 0.306 |
| GGGGGCCACAGCAGAAGCGUUCACGUCGCGGCCCCUGCCAGAUUCUGGUGAAUCUGCGGAUUCUGCUGU | 1.01 |
